Data reported in the supplement of paper PMC11246515.
± gives the standard deviation of the averaged measurements.

Assay: total protein half-life in vivo (active degradation + dilution); higher = more stable protein
[1] = E. coli NCM3722 delta-clpP delta-lon delta-hslV, growth: N-lim chemostat, doubling time 6 h
[2] = wild type E. coli NCM3722, growth: C-lim chemostat, doubling time 6 h
[3] = wild type E. coli NCM3722, growth: C-lim chemostat, doubling time 12 h
[4] = E. coli NCM3722 delta-hslV, growth: N-lim chemostat, doubling time 6 h
[5] = E. coli NCM3722 delta-lon, growth: N-lim chemostat, doubling time 6 h
[6] = E. coli NCM3722 delta-smpB, growth: N-lim chemostat, doubling time 6 h
[7] = wild type E. coli NCM3722, growth: C-lim chemostat, doubling time 3 h
[8] = wild type E. coli NCM3722, growth: N-lim chemostat, doubling time 6 h
[9] = wild type E. coli NCM3722, growth: N-lim chemostat, doubling time 12 h
[10] = wild type E. coli NCM3722, growth: P-lim chemostat, doubling time 6 h
[11] = wild type E. coli NCM3722, growth: P-lim chemostat, doubling time 12 h
[12] = E. coli NCM3722 delta-clpP, growth: N-lim chemostat, doubling time 6 h

Sequence | total protein half-life in vivo [1] | total protein half-life in vivo [2] | total protein half-life in vivo [3] | total protein half-life in vivo [4] | total protein half-life in vivo [5] | total protein half-life in vivo [6] | total protein half-life in vivo [7] | total protein half-life in vivo [8] | total protein half-life in vivo [9] | total protein half-life in vivo [10] | total protein half-life in vivo [11] | total protein half-life in vivo [12]
MILHPSLASANPLHYGRELTALDNLDFGSLHLDIEDSSFINNITFGMKTVQAVARQTPHPLSFHFMLARPQRWFNALAEIRPAWIFVHAETLDYPSETLTEIRHTGARAGLVFNPATPIDAWRYLASELDGVMVMTSEPDGQGQRFIPSMCEKIQKVRTAFPQTECWADGGITLAAAQQLAAAGAQHMVIGRALFSSSDYRATLAQFATL | 5.63 ± 0.16 h | 1.44 h | 0.974 h | – | – | – | – | – | – | – | – | –
MATGKSCSRWFAPLAALLMVVSLSGCFDKEGDQRKAFIDFLQNTVMRSGERLPTLTADQKKQFGPFVSDYAILYGYSQQVNQAMDSGLRPVVDSVNAIRVPQDYVTQSGPLREMNGSLGVLAQQLQNAKLQADAAHSALKQSDDLKPVFDQAFTKVVTTPADALQPLIPAAQTFTQQLVMVGDYIAQQGTQVSFVANGIQFPTSQQASEYNKLIAPLPAQHQAFNQAWTTAVTATQ [P0ADK0] | 6.1 ± 0.091 h | 6.13 ± 0.24 h | 13.5 ± 1.5 h | 6.34 ± 0.47 h | 6.34 ± 0.28 h | 6.1 ± 0.9 h | 3.007 ± 0.025 h | 5.79 ± 0.17 h | 12.5 ± 0.65 h | 5.88 ± 0.16 h | 12.5 ± 1.1 h | –
MAQVINTNSLSLITQNNINKNQSALSSSIERLSSGLRINSAKDDAAGQAIANRFTSNIKGLTQAARNANDGISVAQTTEGALSEINNNLQRVRELTVQATTGTNSESDLSSIQDEIKSRLDEIDRVSGQTQFNGVNVLAKNGSMKIQVGANDNQTITIDLKQIDAKTLGLDGFSVKNNDTVTTSAPVTAFGATTTNNIKLTGITLSTEAATDTGGTNPASIEGVYTDNGNDYYAKITGGDNDGKYYAVTVANDGTVTMATGATANATVTDANTTKATTITSGGTPVQIDNTAGSATANLGAVSLVKLQDSKGNDTDTYALKDTNGNLYAADVNETTGAVSVKTITYTDSSGAASSPTAVKLGGDDGKTEVVDIDGKTYDSADLNGGNLQTGLTAGGEALTAVANGKTTDPLKALDDAIASVDKFRSSLGAVQNRLDSAVTNLNNTTTNLSEAQSRIQDADYATEVSNMSKAQIIQQAGNSVLAKANQVPQQVLSLLQG | > 8 h | 0.724 ± 0.37 h | 0.956 ± 0.59 h | > 8 h | > 8 h | > 8 h | 0.717 ± 0.2 h | 6.3 ± 0.12 h | – | > 8 h | > 16 h | –
MCGIVGAIAQRDVAEILLEGLRRLEYRGYDSAGLAVVDAEGHMTRLRRLGKVQMLAQAAEEHPLHGGTGIAHTRWATHGEPSEVNAHPHVSEHIVVVHNGIIENHEPLREELKARGYTFVSETDTEVIAHLVNWELKQGGTLREAVLRAIPQLRGAYGTVIMDSRHPDTLLAARSGSPLVIGLGMGENFIASDQLALLPVTRRFIFLEEGDIAEITRRSVNIFDKTGAEVKRQDIESNLQYDAGDKGIYRHYMQKEIYEQPNAIKNTLTGRISHGQVDLSELGPNADELLSKVEHIQILACGTSYNSGMVSRYWFESLAGIPCDVEIASEFRYRKSAVRRNSLMITLSQSGETADTLAGLRLSKELGYLGSLAICNVPGSSLVRESDLALMTNAGTEIGVASTKAFTTQLTVLLMLVAKLSRLKGLDASIEHDIVHGLQALPSRIEQMLSQDKRIEALAEDFSDKHHALFLGRGDQYPIALEGALKLKEISYIHAEAYAAGELKHGPLALIDADMPVIVVAPNNELLEKLKSNIEEVRARGGQLYVFADQDAGFVSSDNMHIIEMPHVEEVIAPIFYTVPLQLLAYHVALIKGTDVDQPRNLAKSVTVE | 5.12 ± 0.77 h | 5.37 ± 0.3 h | 9.64 ± 0.98 h | 4 ± 0.11 h | 4.01 ± 0.15 h | 3.98 ± 0.33 h | 3.14 ± 0.23 h | 4.14 ± 0.067 h | 6.35 ± 0.37 h | 5.8 ± 0.14 h | 11.3 ± 0.96 h | 5.07 ± 1.3 h
MPKFRVSLFSLALMLAVPFAPQAVAKTAAATTASQPEIASGSAMIVDLNTNKVIYSNHPDLVRPIASISKLMTAMVVLDARLPLDEKLKVDISQTPEMKGVYSRVRLNSEISRKDMLLLALMSSENRAAASLAHHYPGGYKAFIKAMNAKAKSLGMNNTRFVEPTGLSVHNVSTARDLTKLLIASKQYPLIGQLSTTREDMATFSNPTYTLPFRNTNHLVYRDNWNIQLTKTGFTNAAGHCLVMRTVINNKPVALVVMDAFGKYTHFADASRLRTWIETGKVMPVPAAALSYKKQKAAQMAAAGQTAQND [P0AFI5] | 3.37 ± 0.94 h | 1.65 ± 0.34 h | 5.03 ± 1.2 h | 2.57 ± 0.64 h | 2.78 ± 0.39 h | 1.81 ± 0.06 h | 1.2 ± 0.078 h | 2.93 ± 0.48 h | 3.05 ± 0.18 h | 3.78 ± 3.8 h | 5.78 ± 1.1 h | 4.68 ± 1.7 h
MKLLQRGVALALLTTFTLASETALAYEQDKTYKITVLHTNDHHGHFWRNEYGEYGLAAQKTLVDGIRKEVAAEGGSVLLLSGGDINTGVPESDLQDAEPDFRGMNLVGYDAMAIGNHEFDNPLTVLRQQEKWAKFPLLSANIYQKSTGERLFKPWALFKRQDLKIAVIGLTTDDTAKIGNPEYFTDIEFRKPADEAKLVIQELQQTEKPDIIIAATHMGHYDNGEHGSNAPGDVEMARALPAGSLAMIVGGHSQDPVCMAAENKKQVDYVPGTPCKPDQQNGIWIVQAHEWGKYVGRADFEFRNGEMKMVNYQLIPVNLKKKVTWEDGKSERVLYTPEIAENQQMISLLSPFQNKGKAQLEVKIGETNGRLEGDRDKVRFVQTNMGRLILAAQMDRTGADFAVMSGGGIRDSIEAGDISYKNVLKVQPFGNVVVYADMTGKEVIDYLTAVAQMKPDSGAYPQFANVSFVAKDGKLNDLKIKGEPVDPAKTYRMATLNFNATGGDGYPRLDNKPGYVNTGFIDAEVLKAYIQKSSPLDVSVYEPKGEVSWQ | 5.52 ± 0.41 h | 6.01 ± 0.52 h | 12.9 ± 0.35 h | 6.306 ± 0.01 h | 6.44 ± 0.24 h | 5.9 ± 0.07 h | 3.091 ± 0.03 h | 6.62 ± 0.42 h | 12.4 ± 1.3 h | 5.21 ± 0.21 h | 11.2 ± 0.18 h | 5.69 ± 0.46 h
MTTPTFDTIEAQASYGIGLQVGQQLSESGLEGLLPEALVAGIADALEGKHPAVPVDVVHRALREIHERADAVRRQRFQAMAAEGVKYLEENAKKEGVNSTESGLQFRVINQGEGAIPARTDRVRVHYTGKLIDGTVFDSSVARGEPAEFPVNGVIPGWIEALTLMPVGSKWELTIPQELAYGERGAGASIPPFSTLVFEVELLEIL [P0A9L3] | 4.93 ± 0.29 h | 5.67 ± 0.37 h | 10.4 ± 0.65 h | 3.72 ± 0.16 h | 5 ± 0.44 h | 3.45 ± 0.19 h | 3.06 ± 0.2 h | 3.59 ± 0.1 h | 5.3 ± 0.15 h | 5.591 ± 0.04 h | 11 ± 0.86 h | 4.54 ± 0.58 h
